The values that follow come from PMC4351158 (Structure (London, England : 1993), 2015).

Test in all cases: fluorescence polarisation
For orientation: Fluorescence polarisation rises when a labelled molecule tumbles more slowly, as on binding a larger partner.

Assay [1] has as its target T1, DegS E230A (E. coli, UniProt P0AEE3 27-355, E230A).
T1 sequence (looked up): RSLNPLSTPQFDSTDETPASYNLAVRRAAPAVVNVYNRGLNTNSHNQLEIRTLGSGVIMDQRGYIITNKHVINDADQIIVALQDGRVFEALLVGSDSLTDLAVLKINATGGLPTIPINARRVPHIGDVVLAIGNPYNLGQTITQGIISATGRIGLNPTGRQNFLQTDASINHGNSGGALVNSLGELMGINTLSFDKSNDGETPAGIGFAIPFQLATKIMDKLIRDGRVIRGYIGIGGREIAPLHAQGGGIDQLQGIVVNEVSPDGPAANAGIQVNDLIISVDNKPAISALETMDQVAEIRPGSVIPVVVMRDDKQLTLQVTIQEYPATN

The target in assay [2] is T2, DegS D221A/H198P (E. coli, UniProt P0AEE3 27-355, D221A | H198P).
T2 sequence (looked up): T1 sequence (looked up) with H172P, D195A, A204E

Assay [3] has as its target T3, DegS R178A/H198P (E. coli, UniProt P0AEE3 27-355, R178A | H198P).
T3 sequence (looked up): T1 sequence (looked up) with R152A, H172P, A204E

For assay [4], the target named is T4, DegS R178A (E. coli, UniProt P0AEE3 27-355, R178A).
T4 sequence (looked up): T1 sequence (looked up) with R152A, A204E

Assay [5] has as its target T5, DegS T169A/H198P (E. coli, UniProt P0AEE3 27-355, T169A | H198P).
T5 sequence (looked up): T1 sequence (looked up) with T143A, H172P, A204E

In general, Kd refers to the equilibrium constant for the complex coming apart. Low readings indicate higher affinity, high ones lower affinity.

Positions count from the first letter of the chain named. Where no end group is shown, it is not given here. fluorescein = fluorescein, a fluorescent label on the peptide N-terminus

As to fluorescein-DNRDGNVYYF [fluorescent OMP peptide fluorescein-DNRDGNVYYF], the Kd in assay [1] turned out to be 5.7 ± 1.3 µM; in assay [2], 1.7 ± 0.1 µM; in assay [3] it was 4 ± 0.1 µM; in assay [4], 3.6 ± 0.2 µM; in assay [5], 2 ± 0.2 µM.
